For data set [1], the system named is C57BL/6 DIO mice. The data set is described as follows: Chronic treatment of DIO mice with anti-GIPR 2.63.1 in combination with Liraglutide, Dulaglutide or Exendin IV. The format is in vivo, mouse. The settings on record: 2.63.1 25 mg/kg once a week, Dulaglutide 1 mg/kg twice a week, Liraglutide 0.3 mg/kg once a day, Exendin IV 0.01 mg/kg once a day, i.p. As for the experimental part:
Male C57BL/6 DIO mice were purchased from Jackson laboratory. Mice were singly housed and continued on high fat diet (60 kcal % fat, Research diet) after arrival. […] All treatments were administrated intraperitoneally. Blood samples were collected from tail vein or cardiac puncture at termination. Serum insulin levels were determined by using mouse high range insulin ELISA (ALPCO Diagnostics). The triglyceride levels were measured using an infinity triglyceride assay kit (Thermo Scientific). Total cholesterol was measured using an infinity total cholesterol kit (Thermo Scientific). Body composition was determined using the minispec whole body composition analyzer (Bruker). For oral glucose tolerance test, mice were fasted for 4 h. Glucose levels were measured and blood samples were taken from the tail vein before the OGTT was initiated. A bolus of glucose (2 g/kg) was given orally by a gavage needle. Glucose levels were measured at 15, 30 and 60 min after glucose administration using a glucose meter (Abbott).

The conditions of data set [2]: rapid degradation by the DPP-IV enzyme; cited from earlier work.
Data set [3] concerns high fat diet (HFD)-induced obese C57BL/6 mice. In words: Mouse pharmacodynamic assay (IPGTT following exogenous [D-Ala2]-GIP) to test anti-murine GIPR antibody 2.63.1. The format is in vivo. Conditions: antibody i.p. the day before IPGTT, [D-Ala2]-GIP 50 nmol/kg i.p. As for the experimental part:
FIG. 1 provides an overview of the pharmacodynamics assay to test anti-murine GIPR antibodies. Seven week old male high fat diet (HFD)-induced obese C57BL/6 mice were purchased from Jackson Labs. After arrival, mice were continued on high fat diet with Research Diets D12492 (60 kcal % fat) (Research diet) for one to two weeks. Mice were randomized by body weight and were administrated intraperitoneally with testing GIPR antibody or vehicle (10 mM acetate, 150 mM NaCl, pH 5.0) the day before intraperitoneal glucose tolerance test (IPGTT). Mice were fasted for 7 hours and IPGTT was performed immediately following exogenous GIP [D-Ala2]-GIP (50 nmol/kg, Phoenix Pharmaceuticals) given intraperitoneally. Blood samples were taken from tail nick at the times indicated. Glucose was measured using AlphaTrak blood glucose meter (Abbott). Blood insulin level was determined by using Insulin (mouse) ultra-sensitive EIA kit (ALPCO Diagnostics). […] 2.63.1 comprises a light chain with the following sequence: […]

Data set [4] has as its system C57BL/6 DIO mice. In words: Chronic treatment of diet induced obese mice with GIPR antibody 2.63.1. The settings on record: twice a week i.p. for 6 weeks. The format is in vivo, mouse. As for the experimental part:
FIG. 3 provides an overview of the study used to determine the effects of chronic treatment of diet induced obese (DIO) mice with the 2.63.1 antibody. 18 week old male C57BL/6 DIO mice fed Research Diets D12492 (60 kcal % fat) were randomized into groups. Treatments were given twice a week intraperitoneally for 6 weeks. Blood glucose levels were measured from tail nick using a glucose meter (Abbott) after mice were fasted for 4 hours. Insulin levels were determined using mouse high range insulin ELISA (ALPCO Diagnostics). Triglyceride levels were measured using an Infinity triglyceride assay kit (Thermo Scientific). Total cholesterol was measured using an Infinity total cholesterol kit (Thermo Scientific). Body composition was determined using the minispec whole body composition analyzer (Bruker).
For intraperitoneal glucose tolerance test (IPGTT), mice were fasted for 4 hours. Glucose levels were measured and blood samples were taken from the tail vein before IPGTT was initiated. IPGTT was performed by intraperitoneal injection of glucose (1 g/kg body weight). Glucose levels were measured at 20, 40 and 60 minutes after glucose administration by using a glucose meter (Abbott). FIG. 4.
At termination, liver and epididymal fat was isolated and weighed using a balance. One piece of each tissue was fixed in 10% buffered formalin for 24 hours.

Data set [5] deals with C57BL/6 DIO mice. The data set is described as follows: Chronic treatment of DIO mice with anti-GIPR 2.63.1 in combination with Liraglutide. Conditions: 2.63.1 30 mg/kg twice a week, Liraglutide 0.3 mg/kg once a day, i.p. The format is in vivo, mouse. How it is done: FIG. 24 provides an overview of the study used to determine the effects of chronic treatment of diet induced obese (DIO) mice with the mouse anti-mouse GIPR Ab (2.63.1) in combination with the GLP-1R agonist Liraglutide. Male C57BL/6 DIO mice were purchased from Jackson laboratory. Mice were single housed and continued on high fat diet (60 kcal % fat, Research Diets). Mice at 35 weeks old were randomized into groups and received one of the following treatments: A: vehicle (10 mM acetate, 9% sucrose, pH 5.2, and saline); B: 2.63.1 (30 mg/kg, twice a week); C: Liraglutide (0.3 mg/kg, once a day) and D: 2.63.1 (30 mg/kg, twice a week) and Liraglutide (0.3 mg/kg, once a day). All treatments were administrated intraperitoneally.
Blood samples were collected from tail vein or cardiac puncture at termination. Serum insulin levels were determined by using mouse high range insulin ELISA (ALPCO Diagnostics). Serum leptin levels were measured using mouse and rat leptin ELISA kit from BioVendor. The triglyceride levels were measured using an infinity triglyceride assay kit (Thermo Scientific). Total cholesterol was measured using an infinity total cholesterol kit (Thermo Scientific). At termination, liver, epididymal fat and inguinal fat were isolated and weighed using a balance.
Body composition was determined using the minispec whole body composition analyzer (Bruker).
For the oral glucose tolerance test (OGTT), mice were fasted for 4 hours. Glucose levels were measured and blood samples were taken from the tail vein before the OGTT was initiated. A bolus of glucose (2 g/kg) was given orally by a gavage needle. Glucose levels were measured at 15, 30 and 60 min after glucose administration using a glucose meter (Abbott).

In the next data set the test system is C57BL/6 DIO male mice. In words: Anti-GIPR 2.63.1 treatment in DIO mice pre-treated with Liraglutide (two-phase study). Conditions: Liraglutide 0.05 or 0.3 mg/kg daily for 2 weeks, then 2.63.1 25 mg/kg weekly added. It counts as in vivo, mouse. From the text: FIG. 41 provides an overview of the study used to determine the effects of chronic treatment of diet induced obese (DIO) mice pre-treated with Liragutide with the mouse anti-mouse GIPR Ab (2.63.1). C57BL/6 DIO male mice (17 week old) fed Research Diets D12492 (60% kcal fat) for 13 weeks were randomized into groups. During phase 1 (pre-treatment phase), animals were intraperitoneally dosed daily for 2 weeks with either 1) saline (0.9% sodium chloride), 2) Liraglutide (BAChem #H-6724-0005) at 0.05 mg/kg, 3) Liraglutide at 0.3 mg/kg, or 4) Liraglutide 0.3 mg/kg in combination with a weekly dose of mouse anti-mouse GIPR Ab (2.63.1) in vehicle (10 mM acetate, 9% sucrose, pH 5.2) at 25 mg/kg;ll other groups (1-3) received a weekly dose of vehicle. During phase 2 (experimental stage) mouse anti-mouse GIPR Ab (2.63.1) treatment was initiated in the animals pre-treated with Liraglutide. Blood glucose levels were measured from retro orbital sinus using a glucose meter (Abbott) after mice were fasted for 4 hours before phase 1, end of phase 1, and at the end of the experiment. Insulin levels were determined using mouse high range insulin ELISA (ALPCO Diagnostics). […] Plasma was analyzed on the Olympus chemistry analyzer for liver enzymes, cholesterol, triglycerides, and NEFA. Plasma was analyzed in mouse metabolism multiplex assay (MMHMAG-44K—EMD Millipore) for mouse hormones.

On to “Dulaglutide: GLP1R agonist; also known LY2189265, Eli Lilly and Company [reference compound]”, for which, in the data set on C57BL/6 DIO mice [1], the “effect on fat mass loss of the combination GIPR Ab 2.63.1 with GLP-1R agonist (Liraglutide, Dulaglutide or Exendin IV)” value is listed as “synergistic effect” and the “effect on weight loss of the combination GIPR Ab 2.63.1 with GLP-1R agonist (Liraglutide, Dulaglutide or Exendin IV)” value is “synergistic effect”.

Take “GLP-1: 31-amino acid peptide derived from the proglucagon gene”: the half-life entry in data set [2] is listed as “approximately 2 minutes”.

B1: 2.63.1: anti-murine GIPR antibody; light chain SEQ ID NO: 3161, heavy chain SEQ ID NO: 3162 (antibody)
heavy: MGWSYIILFLVATATDVHSQVQLQQPGAELVKPGASVKLSCRASGYTFTSNWMHWVKQRPRQGLEWIGEINPSNGRSNYNEKFKTKATLTVDKSSSTAYMQLSSLTSEDSAVYYCARFYYGTSWFAYWGQGTLVAVSAAKTTPPSVYPLAPGSAAQTNSMVTLGCLVKGYFPEPVTVTWNSGSLSSGVHTFPAVLQSDLYTLSSSVTVPSSTWPSETVTCNVAHPASSTKVDKKIVPRDCGCKPCICTVPEVSSVFIFPPKPKDVLTITLTPKVTCVVVDISKDDPEVQFSWFVDDVEVHTAQTQPREEQFASTFRSVSELPIMHQDWLNGKEFKCRVNSAAFPAPIEKTISKTKGRPKAPQVYTIPPPKEQMAKDKVSLTCMITDFFPEDITVEWQWNGQPAENYKNTQPIMDTDGSYFVYSKLNVQKSNWEAGNTFTCSVLHEGLHNHHTEKSLSHSPGK
light: MKLPVRLLVLMFWIPASSSDVVMTQTPLSLPVSLGDQASISCRSSQSLVHSNGDTYLHWYLQKPGQSPKLLIYKVSNRFSGVPDRFSGSGSGTDFTLKISRVEAADLGVYFCSQSTHVPPFTFGGGTKLEIKRADAAPTVSIFPPSSEQLTSGGASVVCFLNNFYPKDINVKWKIDGSERQNGVLNSWTDQDSKDSTYSMSSTLTLTKDEYERHNSYTCEATHKTSTSPIVKSFNRNEC
Turning to B1, the “GIP induced glucose levels” value in data set [3] (FIG. 2A) is “Antagonized”. In addition, the “GIP induced insulin secretion” value in data set [3] (FIG. 2B) was “antagonizes GIP induced insulin secretion”. Besides, the fasting glucose levels entry in the data set with C57BL/6 DIO mice [4] (4 hours fast, FIG. 7) is given as “lower fasting glucose levels”. For the same molecule, the body weight gain entry in the data set with C57BL/6 DIO mice [4] (FIG. 4) is reported as “Reduced Body Weight Gain”. Moreover, the fat mass result in the data set on C57BL/6 DIO mice [4] (FIG. 5) is reported as “lower fat mass”. Besides, the “epididymal white adipose tissue weights” value with C57BL/6 DIO mice [4] (FIG. 6) is recorded as “lower epididymal white adipose tissue weights”. Moreover, the insulin levels result in the data set on C57BL/6 DIO mice [4] (FIG. 8) was “lower insulin levels”. Moreover, the serum total cholesterol entry in the data set on C57BL/6 DIO mice [4] (FIG. 10A) is recorded as “lower serum total cholesterol”. Besides, in the data set with C57BL/6 DIO mice [4] (FIG. 10B), the serum triglycerides entry is “Lower”. In addition, the “hepatocyte microvesicular change and corresponding lipid accumulation” value in the data set with C57BL/6 DIO mice [4] (FIG. 11) is “reduction in hepatocyte microvesicular change and corresponding lipid accumulation”. For the same molecule, the liver weight entry in the data set on C57BL/6 DIO mice [4] (FIG. 12A) is reported as “reduced liver weight”. The liver triglyceride content result in the data set on C57BL/6 DIO mice [4] (FIG. 12B) is reported as “reduced”. Also, the “inflammation and infiltrating macrophages surrounding adipocytes in epididymal white adipose tissue” value in the data set on C57BL/6 DIO mice [4] (FIG. 13) was “reduced inflammation and reduced infiltrating macrophages cells surrounding adipocytes”. Also, the “glucose tolerance (IPGTT)” value with C57BL/6 DIO mice [4] (glucose 1 g/kg i.p., FIG. 9) is given as “improved glucose tolerance”. In addition, in the data set on C57BL/6 DIO mice [5], the body weight result was “prevented weight gain”, the glucose levels result is recorded as “lowered glucose” and the insulin levels entry was “lowered”. In the data set with C57BL/6 DIO mice [1], the “effect on fat mass loss of the combination GIPR Ab 2.63.1 with GLP-1R agonist (Liraglutide, Dulaglutide or Exendin IV)” value is “synergistic effect” and the “effect on weight loss of the combination GIPR Ab 2.63.1 with GLP-1R agonist (Liraglutide, Dulaglutide or Exendin IV)” value is on record as “synergistic effect”. In the data set on C57BL/6 DIO male mice, the “weight loss in animals pre-treated with Liraglutide” value is recorded as “weight loss effect of anti-GIPR can be observed in animals already receiving GLP-1R agonist therapy”.

Values taken from patent US10294303B2, “Method of treating or ameliorating metabolic disorders using binding proteins for gastric inhibitory peptide receptor (GIPR) in combination with GLP-1 agonists” (AMGEN INC., priority 2015, dated 2019).
